From IntAct's records for PubMed 21376300

B1: Band 4.1-like protein 1 (Rattus norvegicus (Rat)), Q9WTP0 (parent)
chain: MTTETGPDSEVKKAQEETPQQPEAAAAVTTPVTPAGHSHPETNSNEKHLTQQDTRPAEQSLDMEEKDYCEADGLSERTTPSKAQKSPQKIAKKFKSATCRVTLLDASEYECEVEKHGRGQVLFDLVCEHLNLLEKDYFGLTFCDADSQKNWLDPSKEIKKQIRSSPWNFAFTVKFYPPDPAQLTEDITRYYLCLQLRADIITGRLPCSFVTHALLGSYAVQAELGDHDTEEHVGNYVSELRFAPNQTRELEERIMELHKTYRGMTPGEAEIHFLENAKKLSMYGVDLHHAKDSEGIDIMLGVCANGLLIYRDRLRINRFAWPKILKISYKRSNFYIKIRPGEYEQFESTIGFKLPNHRSAKRLWKVCIEHHTFFRLVSPEPPPKGFLVMGSKFRYSGRTQAQTRQASALIDRPAPFFERSSSKRYTMSRSLDGAEFSRPASVSENHDAGPDGDKREDDAESGGRRSEAEEGEVRTPTKIKELKPEQETTPRHKQEFLDKPEDVLLKHQASINELKRTLKEPNSKLIHRDRDWERERRLPSSPASPSPKGTPEKASERAGLREGSEEKVKPPRPRAPESDTGDEDQDQERDAVFLKDNHLAIERKCSSITVSSTSSLEAEVDFTVIGDYHGGAFEDFSRSLPELDRDKSDSETEGLVFARDLKGPSSQEDESGGIEDSPDRGACSTPELPQFESVKAETMTVSSLAIRKKIEPEAMLQSRVSTADSTQVDGGAPAAKDFMTTPPCITTETISTTMENSLKSGKGAAAMIPGPQTVATEIRSLSPIIGKDVLTSTYGATAETLSTSTTTHVTKTVKGGFSETRIEKRIIITGDEDVDQDQALALAIKEAKLQHPDMLVTKAVVYRETDPSPEERDKKPQES
B2: Voltage-dependent calcium channel gamma-2 subunit (Rattus norvegicus (Rat)), Q71RJ2 (parent)
chain: MGLFDRGVQMLLTTVGAFAAFSLMTIAVGTDYWLYSRGVCKTKSVSENETSKKNEEVMTHSGLWRTCCLEGNFKGLCKQIDHFPEDADYEADTAEYFLRAVRASSIFPILSVILLFMGGLCIAASEFYKTRHNIILSAGIFFVSAGLSNIIGIIVYISANAGDPSKSDSKKNSYSYGWSFYFGALSFIIAEMVGVLAVHMFIDRHKQLRATARATDYLQASAITRIPSYRYRYQRRSRSSSRSTEPSHSRDASPVGVKGFNTLPSTEISMYTLSRDPLKAATTPTATYNSDRDNSFLQVHNCIQKDSKDSLHANTANRRTTPV

Variants of: B1
Conditions: with gria1_rat Gria1, P19490
Target sequence in this assay (P19490 whole entry): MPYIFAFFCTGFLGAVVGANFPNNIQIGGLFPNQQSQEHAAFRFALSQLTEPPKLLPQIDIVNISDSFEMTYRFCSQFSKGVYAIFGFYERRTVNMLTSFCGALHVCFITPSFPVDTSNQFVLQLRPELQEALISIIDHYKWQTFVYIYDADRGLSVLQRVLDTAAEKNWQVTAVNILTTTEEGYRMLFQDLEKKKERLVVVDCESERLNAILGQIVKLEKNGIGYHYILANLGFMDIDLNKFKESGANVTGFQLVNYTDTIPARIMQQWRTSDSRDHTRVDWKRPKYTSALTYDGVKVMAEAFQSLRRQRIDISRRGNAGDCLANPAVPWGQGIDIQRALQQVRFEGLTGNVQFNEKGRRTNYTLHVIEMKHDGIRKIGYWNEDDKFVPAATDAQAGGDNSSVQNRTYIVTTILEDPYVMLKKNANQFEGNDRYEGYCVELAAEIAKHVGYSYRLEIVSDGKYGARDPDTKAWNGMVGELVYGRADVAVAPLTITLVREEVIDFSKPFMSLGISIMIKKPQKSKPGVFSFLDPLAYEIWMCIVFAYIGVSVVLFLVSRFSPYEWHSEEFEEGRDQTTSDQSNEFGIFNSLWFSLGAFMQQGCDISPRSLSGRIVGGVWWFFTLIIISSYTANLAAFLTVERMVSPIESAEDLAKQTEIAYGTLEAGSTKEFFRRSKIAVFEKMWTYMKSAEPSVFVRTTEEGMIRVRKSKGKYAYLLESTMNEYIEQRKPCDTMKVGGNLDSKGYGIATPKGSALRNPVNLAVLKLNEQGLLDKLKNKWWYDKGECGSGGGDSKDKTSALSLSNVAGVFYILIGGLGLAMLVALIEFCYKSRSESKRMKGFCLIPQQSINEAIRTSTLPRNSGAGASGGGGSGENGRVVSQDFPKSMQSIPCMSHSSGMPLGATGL

Variant	effect of a mutation on the interaction
P852S	decreasing interaction

Variants of: B2
Conditions: with gria1_rat Gria1, P19490
Target sequence in this assay (P19490 whole entry): as above

Variant	effect of a mutation on the interaction
MGLFDRGVQMLLTTVGAFAAFSLMTIAVGTDYWLYSRGVCKTKSVSENETSKKNEEVMTHSGLWRTCCLEGNFKGLCKQIDHFPEDADYEADTAEYFLRAVRASSIFPILSVILLFMGGLCIAASEFYKTRHNIILSAGIFFLSAGLSNIIGIIVYISANAGDPSKSDSKKNSYSYGWSFYFGALSFIIAEMVGVLAVHMFIDRHKQLRATARATDYLQASAITRIPSYRYRYQRRSRSSSRSTEPSHSRDASPVGVKGFNTLPSTEISMYTLSRDPLKAATTPTATYNSDRDNSFLQVHNCIQKDSKDSLHANTANRRTTPV [V143L]	decreasing interaction

Variants of: B2
Conditions: with gria2_rat Gria2, P19491
Chain of gria2_rat Gria2, P19491 (P19491 whole entry): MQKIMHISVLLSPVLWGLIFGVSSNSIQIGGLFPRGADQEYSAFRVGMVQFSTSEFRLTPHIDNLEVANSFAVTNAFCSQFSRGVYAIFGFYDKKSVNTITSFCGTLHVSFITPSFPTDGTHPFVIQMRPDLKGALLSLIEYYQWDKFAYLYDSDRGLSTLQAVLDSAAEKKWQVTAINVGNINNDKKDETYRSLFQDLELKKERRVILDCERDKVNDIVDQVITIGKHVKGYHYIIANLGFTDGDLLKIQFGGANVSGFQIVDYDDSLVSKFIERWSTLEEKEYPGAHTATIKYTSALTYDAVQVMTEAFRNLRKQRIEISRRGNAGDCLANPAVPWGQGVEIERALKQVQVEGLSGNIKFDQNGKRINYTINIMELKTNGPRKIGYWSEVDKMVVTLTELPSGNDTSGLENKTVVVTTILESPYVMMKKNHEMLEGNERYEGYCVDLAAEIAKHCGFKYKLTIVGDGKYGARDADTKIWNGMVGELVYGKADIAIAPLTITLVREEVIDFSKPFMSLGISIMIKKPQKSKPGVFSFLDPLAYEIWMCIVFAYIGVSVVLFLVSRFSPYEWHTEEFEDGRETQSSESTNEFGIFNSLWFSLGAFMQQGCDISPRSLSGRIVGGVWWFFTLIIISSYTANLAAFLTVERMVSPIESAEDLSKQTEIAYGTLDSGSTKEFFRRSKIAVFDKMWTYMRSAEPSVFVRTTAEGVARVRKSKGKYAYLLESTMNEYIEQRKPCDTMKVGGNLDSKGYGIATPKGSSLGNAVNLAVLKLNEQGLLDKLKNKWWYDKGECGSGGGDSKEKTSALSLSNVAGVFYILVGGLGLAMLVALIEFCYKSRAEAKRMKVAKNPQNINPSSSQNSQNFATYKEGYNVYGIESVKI

Variant	effect of a mutation on the interaction
MGLFDRGVQMLLTTVGAFAAFSLMTIAVGTDYWLYSRGVCKTKSVSENETSKKNEEVMTHSGLWRTCCLEGNFKGLCKQIDHFPEDADYEADTAEYFLRAVRASSIFPILSVILLFMGGLCIAASEFYKTRHNIILSAGIFFLSAGLSNIIGIIVYISANAGDPSKSDSKKNSYSYGWSFYFGALSFIIAEMVGVLAVHMFIDRHKQLRATARATDYLQASAITRIPSYRYRYQRRSRSSSRSTEPSHSRDASPVGVKGFNTLPSTEISMYTLSRDPLKAATTPTATYNSDRDNSFLQVHNCIQKDSKDSLHANTANRRTTPV [V143L]	decreasing interaction
